Here are results for two substances from article PMC2196039.

For orientation: Kd means the concentration at which binding is half-saturated.

Where “and” joins values, the source holds several entries; their conditions need not be identical. Equal values may be shown once. Read-outs that look alike come from different tables or passages of the source.

For experiment [1], the target named is CD28 Ig (UniProt P10747). Briefly: SPR.
Experiment [2] has as its target CTLA-4 Ig (human) (UniProt P16410). Kind of experiment: SPR. A general note: Surface plasmon resonance follows binding to a sensor surface in real time, without labels.
Experiment [3] shares this target. Briefly: pull-down.
Experiment [4] deals with CD28 Ig (UniProt P10747). Kind of experiment: SPR. The source holds these as a separate data set.
The target of experiment [5] is CTLA-4 Ig (human) (UniProt P16410). Kind of experiment: SPR. The source holds these as a separate data set.
Experiment [6] deals with CD28 Ig (UniProt P10747). Kind of experiment: SPR. This is another data set of the same source.
Experiment [7] addresses CTLA-4 Ig (human) (UniProt P16410). Briefly: SPR. The source holds these as a separate data set.
Experiment [8] concerns the target CD28 Ig (UniProt P10747). Briefly: SPR. The source holds these as a separate data set.
For experiment [9], the target named is CTLA-4 Ig (human) (UniProt P16410). Briefly: SPR. This is another data set of the same source.
Experiment [10] has as its target soluble recombinant CD80 (sCD80), sCD80his after removal of the carboxy-terminal oligo-histidine tag (human). Briefly: SPR.

Sequence of CTLA-4 Ig (P16410 37-161): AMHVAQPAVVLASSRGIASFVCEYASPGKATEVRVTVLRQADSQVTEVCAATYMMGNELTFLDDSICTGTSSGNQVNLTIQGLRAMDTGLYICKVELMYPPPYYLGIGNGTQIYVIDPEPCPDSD

As for “soluble recombinant CD80 (sCD80), sCD80his after removal of the carboxy-terminal oligo-histidine tag (domain or fragment)”, in experiment [1], the Kd was 4100 nM and 4300 nM; the response at 0.82 μM sCD80 (CD28 Ig 7800 RUs), beginning of the experiment worked out at 160 RU; the t1/2 of dissociation (high CD28 Ig level, 40 μl/min) is 0.93 s; the t1/2 of dissociation (high CD28 Ig level, 80 μl/min) was 0.84 s. In addition, in experiment [1], the t1/2 of dissociation (low CD28 Ig level, 40 μl/min) turned out to be 0.69 s and the t1/2 of dissociation (low CD28 Ig level, 80 μl/min) was 0.64 s. In experiment [2], this substance yielded an equilibrium dissociation constant (Kd) of 400 nM; a response at 0.26 μM sCD80 (CTLA-4 Ig 1,500 RUs), beginning of the experiment of 255 RU; a response at 0.26 μM sCD80 (CTLA-4 Ig 1,500 RUs), end of the experiment of 250 RU; a t1/2 of dissociation (high CTLA-4 Ig level, 20 μl/min) of 4.8 s. Moreover, in [2], the t1/2 of dissociation (high CTLA-4 Ig level, 40 μl/min) stood at 4.4 s; the t1/2 of dissociation (low CTLA-4 Ig level, 20 μl/min) came out at 2.2 s; the t1/2 of dissociation (low CTLA-4 Ig level, 40 μl/min) amounted to 2.35 s. Further, the proportion of sCD80 with CTLA-4-binding activity in experiment [3] stood at 100%. The Kd in experiment [4] was 2500 nM. For the same substance, the Kd in [5] came to 260 nM. In experiment [6], this substance came in with a Kd of 4000 nM. Further, the Kd in experiment [7] came out at 420 nM. The same substance returned a Kd in [8] of 4200 nM. This substance also had a Kd in experiment [9] of 380 nM.
Take “CTLA-4 Ig (from UniProt P16410 37-161) (Fc fusion)”: the fold higher avidity than CD28 Ig in experiment [10] is greater than 100 fold.
